According to patent US8697369B2, “Method for screening a test substance for activating a receptor associated with FGF 21 activity” (National Institute of Advanced Industrial Science and …, priority 2007, dated 2014):
“Also recorded” adds a separate entry of the source.

Columns and labels:
Type in all cases: cell-based
[1] = system: 3T3-L1 fibroblasts forced to express betaKlotho; assay: Phosphorylation of FRS2 and MAPK in undifferentiated 3T3-L1 cells forced to express betaKlotho; conditions: 10 μM; pre-treated for 3 hours, then stimulated with FGF21
Experimental: A betaKlotho expression vector produced by the method described in Example 4 and an empty vector used as a control, into which betaKlotho cDNA had not been inserted, were introduced into 3T3-L1 fibroblasts cultured as described in Example 1 by a lipofection method, thereby obtaining Puromycin-resistant clones. These different types of cells were stimulated with FGF21, and 10 minutes after the stimulation, a cell lysate was prepared. The activation of FRS2 and MAPK that were signaling molecules located downstream of FGFR was examined by a Western blotting method.

[2] = target: T1, humanized FGFR1c/humanized betaKlotho (hβKlotho)-expressing cells (Homo sapiens, UniProt P11362+Q86Z14); assay: DNA synthesis in humanized FGFR1c/humanized betaKlotho-expressing BaF3 cells; conditions: humanized FGFR1c and humanized betaKlotho; 10 μg/ml heparin
T1 construct: expressed in transfected cells; host or cells: BaF3 (mouse pro-B) cells; pSRalpha (FGFR1c), pcDNA3.1 (betaKlotho)
T1 sequence (P11362 22-822): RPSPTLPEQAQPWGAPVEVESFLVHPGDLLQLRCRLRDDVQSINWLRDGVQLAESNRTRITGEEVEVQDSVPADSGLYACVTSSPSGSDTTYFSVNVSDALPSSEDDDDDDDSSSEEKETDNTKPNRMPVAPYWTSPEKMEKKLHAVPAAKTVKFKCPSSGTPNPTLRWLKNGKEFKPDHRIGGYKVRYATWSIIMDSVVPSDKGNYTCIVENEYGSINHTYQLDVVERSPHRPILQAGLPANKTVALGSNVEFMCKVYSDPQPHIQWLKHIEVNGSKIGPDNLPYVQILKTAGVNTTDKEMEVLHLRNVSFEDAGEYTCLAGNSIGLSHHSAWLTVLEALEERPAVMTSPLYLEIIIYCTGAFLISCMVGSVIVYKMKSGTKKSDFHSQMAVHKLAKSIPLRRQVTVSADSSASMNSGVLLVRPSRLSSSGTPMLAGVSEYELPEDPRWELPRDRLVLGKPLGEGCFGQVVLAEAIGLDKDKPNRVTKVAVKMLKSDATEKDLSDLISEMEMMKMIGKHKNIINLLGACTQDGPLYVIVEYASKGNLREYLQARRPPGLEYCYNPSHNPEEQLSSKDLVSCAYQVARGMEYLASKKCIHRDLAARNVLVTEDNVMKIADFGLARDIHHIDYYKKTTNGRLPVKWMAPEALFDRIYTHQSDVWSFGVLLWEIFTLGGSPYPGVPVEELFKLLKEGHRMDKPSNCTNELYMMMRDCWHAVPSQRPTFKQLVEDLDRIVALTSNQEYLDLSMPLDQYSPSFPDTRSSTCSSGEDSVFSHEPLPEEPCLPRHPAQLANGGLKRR
T1 sequence (Q86Z14 whole entry): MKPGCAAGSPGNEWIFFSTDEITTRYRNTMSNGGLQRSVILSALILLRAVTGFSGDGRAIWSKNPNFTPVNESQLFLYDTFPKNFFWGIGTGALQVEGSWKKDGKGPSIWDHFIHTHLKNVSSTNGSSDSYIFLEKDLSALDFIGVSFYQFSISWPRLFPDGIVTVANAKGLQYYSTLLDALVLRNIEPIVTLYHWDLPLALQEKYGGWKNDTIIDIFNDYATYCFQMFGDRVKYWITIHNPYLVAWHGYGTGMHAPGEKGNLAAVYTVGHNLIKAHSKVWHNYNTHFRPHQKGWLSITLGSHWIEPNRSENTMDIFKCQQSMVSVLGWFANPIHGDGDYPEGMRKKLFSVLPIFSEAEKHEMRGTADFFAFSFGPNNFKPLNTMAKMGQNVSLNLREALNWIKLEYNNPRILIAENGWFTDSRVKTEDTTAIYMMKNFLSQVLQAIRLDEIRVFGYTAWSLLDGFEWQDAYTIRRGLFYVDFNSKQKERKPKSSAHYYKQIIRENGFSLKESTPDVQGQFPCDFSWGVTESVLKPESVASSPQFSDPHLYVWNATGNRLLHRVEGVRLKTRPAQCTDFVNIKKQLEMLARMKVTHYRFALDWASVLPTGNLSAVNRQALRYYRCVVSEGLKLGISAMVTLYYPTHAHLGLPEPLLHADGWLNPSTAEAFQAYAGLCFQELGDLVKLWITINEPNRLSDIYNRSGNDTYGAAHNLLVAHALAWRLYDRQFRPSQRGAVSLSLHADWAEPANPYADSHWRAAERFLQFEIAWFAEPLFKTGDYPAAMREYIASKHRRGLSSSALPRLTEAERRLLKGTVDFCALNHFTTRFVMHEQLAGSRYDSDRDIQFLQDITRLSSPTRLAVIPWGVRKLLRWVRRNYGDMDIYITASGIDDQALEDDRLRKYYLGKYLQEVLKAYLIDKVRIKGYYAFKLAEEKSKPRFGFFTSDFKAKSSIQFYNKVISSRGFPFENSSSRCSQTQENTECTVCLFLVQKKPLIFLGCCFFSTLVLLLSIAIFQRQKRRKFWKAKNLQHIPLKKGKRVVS
Source text: (§1) In Examples 4, 5, 6, and 7, it was shown that FGF21 reacts with FGFR1c in the presence of betaKlotho. FGFR1c, betaKlotho, FGF21, and the like, which were used in an actual experimental system, were all derived from mice used as typical mammalian models. With regard to these molecules, the homology between a human and a mouse at the amino acid sequence level is extremely high (80% in FGF21, 78% in betaKlotho, and 98% in FGFR1). As a result, naturally, there are no problems regarding the compatibility of the human with the mouse, and thus it is clear that the same results as those from a murine molecule will be obtained even using a humanized molecule. In the present example, as a precautionary measure, an experimental system using a humanized molecule was constructed to confirm such respect, and an experiment was carried out. Specifically, the humanized cDNA of FGFR1c and that of betaKlotho were prepared from a commercially available human RNA sample (Takara Bio Inc.) by PCR. FGFR1c was introduced into an expression vector having an SRalpha promoter (pSRalpha), and betaKlotho was introduced into an expression vector having a CMV promoter (pcDNA3.1; Invitrogen). […] In the presence of heparin, humanized FGF21 was added in various types of concentrations to FGFR1c-expressing cells or FGFR1c/betaKlotho-co-expressing cells, and the amount of DNA synthesized was then measured.

[3] = target: T2, humanized FGFR3c/humanized betaKlotho (hβKlotho)-expressing cells (Homo sapiens, UniProt P22607+Q86Z14, A441S/A461E/A470D/A499P/A500N/A559S/A717S/A734V/A765M/C582S/D512S/D516E/D576E/D580N/D722E/D758Q/D785E/DEL405-414/E426D/E447G/E729D/E768D/F566Y/F579Y/F591S/F767L/G446S/G448T/G548D/G773S/G774F/H721N/I440P/I494L/I698V/I726M/INS417HSQMAVHKLAKSI/INS423TV/INS780T/K420R/K464R/K501R/K583H/L398M/L425A/L457Y/L554I/L645I/L752V/M488L/N428S/N434G/N453G/N644H/P401G/P402T/P436L/P502V/P584N/P778R/Q611K/Q775P/R397K/R399K/R416D/R498K/R568Q/S432N/S468P/S578C/S781C/T435V/T450M/T473V/T504K/T581P/T590S/T753A/T757N/V503T/V523I/V642I/V670I/V751I/V754L); assay: DNA synthesis in humanized FGFR3c/humanized betaKlotho-expressing BaF3 cells; conditions: humanized FGFR3c and humanized betaKlotho; 10 μg/ml heparin
T2 construct: expressed in transfected cells; host or cells: BaF3 (mouse pro-B) cells
T2 sequence (P22607 other isoform, or with tags, fused parts or gaps with the stated changes): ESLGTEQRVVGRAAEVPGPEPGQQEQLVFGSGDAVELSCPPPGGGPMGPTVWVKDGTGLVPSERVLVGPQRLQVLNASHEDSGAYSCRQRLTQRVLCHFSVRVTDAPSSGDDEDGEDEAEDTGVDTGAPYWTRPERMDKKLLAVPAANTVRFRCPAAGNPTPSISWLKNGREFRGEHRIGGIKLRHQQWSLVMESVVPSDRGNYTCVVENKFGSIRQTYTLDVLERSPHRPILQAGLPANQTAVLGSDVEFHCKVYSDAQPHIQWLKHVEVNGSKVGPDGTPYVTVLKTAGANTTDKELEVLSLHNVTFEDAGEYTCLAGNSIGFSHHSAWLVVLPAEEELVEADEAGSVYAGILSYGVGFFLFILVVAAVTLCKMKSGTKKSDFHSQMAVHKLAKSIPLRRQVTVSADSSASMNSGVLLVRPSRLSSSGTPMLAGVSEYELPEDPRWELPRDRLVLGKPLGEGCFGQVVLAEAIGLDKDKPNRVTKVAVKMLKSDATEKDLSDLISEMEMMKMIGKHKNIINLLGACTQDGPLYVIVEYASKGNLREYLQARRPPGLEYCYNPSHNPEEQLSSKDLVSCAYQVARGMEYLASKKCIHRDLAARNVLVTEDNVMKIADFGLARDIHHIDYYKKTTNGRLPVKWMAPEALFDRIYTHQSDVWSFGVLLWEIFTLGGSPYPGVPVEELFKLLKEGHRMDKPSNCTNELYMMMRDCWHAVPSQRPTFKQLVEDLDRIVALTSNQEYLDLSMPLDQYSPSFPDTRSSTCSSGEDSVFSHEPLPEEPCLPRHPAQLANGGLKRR
T2 sequence (Q86Z14 whole entry, stated change not applied): as the sequence (Q86Z14 whole entry) above
Experimental: (§2) The homology between human FGFR3 and mouse FGFR3 at the amino acid sequence level is 93%. […] The cDNA of humanized FGFR3c was prepared from a commercially available human RNA sample (Takara Bio Inc.) by PCR. The sequence of its intracellular portion was substituted with the sequence of humanized FGFR1, and it was then introduced into an expression vector having an SRalpha promoter (pSRalpha). The FGFR3c expression vector was introduced into BaF3 cells by an electroporation method, so as to obtain FGFR3c-expressing BaF3 cells as G418-resistant clones. In the case of FGFR3c/betaKlotho-co-expressing cells, a betaKlotho expression vector was introduced into the FGFR3c-expressing BaF3 cells, so as to obtain the aforementioned cells as Puromycin-resistant clones. In the presence of heparin, humanized FGF21 was added in various types of concentrations to FGFR3c-expressing cells or FGFR3c/betaKlotho-co-expressing cells, and the amount of DNA synthesized was then measured.

[4] = target: T3, humanized FGFR3c (hR3c)-expressing BaF3 cells (Homo sapiens, UniProt P22607, A441S/A461E/A470D/A499P/A500N/A559S/A717S/A734V/A765M/C582S/D512S/D516E/D576E/D580N/D722E/D758Q/D785E/DEL405-414/E426D/E447G/E729D/E768D/F566Y/F579Y/F591S/F767L/G446S/G448T/G548D/G773S/G774F/H721N/I440P/I494L/I698V/I726M/INS417HSQMAVHKLAKSI/INS423TV/INS780T/K420R/K464R/K501R/K583H/L398M/L425A/L457Y/L554I/L645I/L752V/M488L/N428S/N434G/N453G/N644H/P401G/P402T/P436L/P502V/P584N/P778R/Q611K/Q775P/R397K/R399K/R416D/R498K/R568Q/S432N/S468P/S578C/S781C/T435V/T450M/T473V/T504K/T581P/T590S/T753A/T757N/V503T/V523I/V642I/V670I/V751I/V754L); assay: DNA synthesis in humanized FGFR3c-expressing BaF3 cells; conditions: humanized FGFR3c only; 10 μg/ml heparin
T3 construct: expressed in transfected cells; host or cells: BaF3 (mouse pro-B) cells; pSRalpha vector
T3 sequence (P22607 other isoform, or with tags, fused parts or gaps with the stated changes): as the sequence (P22607 other isoform, or with tags, fused parts or gaps with the stated changes) above
Experimental: as §2

[5] = target: T4, humanized FGFR1c (hR1c)-expressing BaF3 cells (Homo sapiens, UniProt P11362); assay: DNA synthesis in humanized FGFR1c-expressing BaF3 cells; conditions: humanized FGFR1c only; 10 μg/ml heparin
T4 construct: expressed in transfected cells; host or cells: BaF3 (mouse pro-B) cells; pSRalpha vector
T4 sequence (P11362 22-822): as the sequence (P11362 22-822) above
Source text: as §1

[6] = target: T5, BaF3 cells that had co-expressed FGFR1c and Klotho (Mus musculus, UniProt O35082+P16092); assay: DNA synthesis in BaF3 cells co-expressing FGFR1c and Klotho; conditions: presence or absence of heparin
T5 construct: the entire-length cDNA of mouse FGFR1c had been cloned; expressed in transfected cells; host or cells: BaF3 (mouse pro-B) cells
Experimental: Specifically, BaF3 cell that had co-expressed FGFR1c and betaKlotho and BaF3 cells that had co-expressed FGFR1c and Klotho were prepared by the same transformation method and under the same culture conditions as those applied in Example 4. Thereafter, FGF21 and FGF23 were added to both types of transformed cells in the presence or absence of heparin, and the amount of DNA synthesized was then measured.

[7] = target: T6, FGFR1c/betaKlotho-expressing BaF3 cells (Mus musculus, UniProt P16092+Q99N32); assay: DNA synthesis (thymidine incorporation) in FGFR1c/betaKlotho-expressing BaF3 cells; conditions: BaF3 cells expressing FGFR1c and betaKlotho; presence or absence of heparin
T6 construct: the entire-length cDNA of mouse FGFR1c had been cloned; the entire-length cDNA of mouse betaKlotho was cloned into an animal cell expression vector; expressed in transfected cells; host or cells: BaF3 (mouse pro-B) cells
T6 sequence (P16092 22-822): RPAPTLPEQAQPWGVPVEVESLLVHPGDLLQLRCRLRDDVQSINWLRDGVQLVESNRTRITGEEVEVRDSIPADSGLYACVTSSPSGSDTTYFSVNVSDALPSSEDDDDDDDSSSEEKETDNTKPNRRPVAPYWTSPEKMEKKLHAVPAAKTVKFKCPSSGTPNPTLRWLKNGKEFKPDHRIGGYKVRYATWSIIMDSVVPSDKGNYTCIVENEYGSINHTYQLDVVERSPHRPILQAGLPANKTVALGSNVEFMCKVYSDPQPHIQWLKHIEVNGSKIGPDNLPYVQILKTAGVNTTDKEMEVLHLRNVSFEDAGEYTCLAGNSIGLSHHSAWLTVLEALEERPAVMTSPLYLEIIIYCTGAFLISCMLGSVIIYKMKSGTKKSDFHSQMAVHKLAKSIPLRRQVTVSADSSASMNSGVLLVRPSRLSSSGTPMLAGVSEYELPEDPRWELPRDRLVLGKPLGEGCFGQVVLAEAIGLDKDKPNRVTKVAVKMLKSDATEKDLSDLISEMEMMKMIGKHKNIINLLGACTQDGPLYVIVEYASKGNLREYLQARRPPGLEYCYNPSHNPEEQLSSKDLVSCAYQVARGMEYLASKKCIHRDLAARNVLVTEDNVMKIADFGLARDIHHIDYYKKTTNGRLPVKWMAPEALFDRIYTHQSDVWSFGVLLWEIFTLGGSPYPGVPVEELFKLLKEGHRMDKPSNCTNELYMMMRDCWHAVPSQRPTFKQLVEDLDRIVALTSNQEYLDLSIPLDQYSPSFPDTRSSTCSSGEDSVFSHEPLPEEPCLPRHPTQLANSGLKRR
T6 sequence (Q99N32 whole entry): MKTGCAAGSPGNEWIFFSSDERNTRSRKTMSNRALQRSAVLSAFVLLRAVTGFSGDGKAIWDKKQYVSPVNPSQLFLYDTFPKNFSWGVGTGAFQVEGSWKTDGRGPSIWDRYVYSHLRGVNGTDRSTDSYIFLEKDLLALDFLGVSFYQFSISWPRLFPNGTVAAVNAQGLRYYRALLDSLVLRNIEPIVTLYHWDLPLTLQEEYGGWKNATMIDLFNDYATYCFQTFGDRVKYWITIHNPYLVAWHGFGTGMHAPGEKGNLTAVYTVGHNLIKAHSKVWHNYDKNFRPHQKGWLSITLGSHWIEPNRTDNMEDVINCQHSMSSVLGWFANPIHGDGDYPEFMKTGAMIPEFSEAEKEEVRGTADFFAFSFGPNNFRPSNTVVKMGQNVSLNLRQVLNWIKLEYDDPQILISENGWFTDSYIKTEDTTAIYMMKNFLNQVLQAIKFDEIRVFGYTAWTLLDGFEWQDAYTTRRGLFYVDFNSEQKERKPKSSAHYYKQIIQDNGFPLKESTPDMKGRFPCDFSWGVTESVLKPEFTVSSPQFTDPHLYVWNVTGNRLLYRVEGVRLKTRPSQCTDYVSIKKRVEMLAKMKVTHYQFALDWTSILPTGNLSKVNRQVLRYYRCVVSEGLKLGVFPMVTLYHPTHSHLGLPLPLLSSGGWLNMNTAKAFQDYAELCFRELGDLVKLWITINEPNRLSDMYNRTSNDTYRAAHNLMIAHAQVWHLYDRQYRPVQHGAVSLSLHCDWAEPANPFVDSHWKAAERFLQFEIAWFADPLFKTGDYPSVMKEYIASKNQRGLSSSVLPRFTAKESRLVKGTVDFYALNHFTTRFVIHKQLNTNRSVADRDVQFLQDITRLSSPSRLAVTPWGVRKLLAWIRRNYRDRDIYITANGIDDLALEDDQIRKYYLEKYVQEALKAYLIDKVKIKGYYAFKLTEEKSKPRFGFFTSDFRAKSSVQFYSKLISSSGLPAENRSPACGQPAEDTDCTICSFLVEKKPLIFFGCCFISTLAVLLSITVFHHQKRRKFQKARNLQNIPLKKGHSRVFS
Experimental: A commonly used measurement method is a cell growth stimulating activity measurement method described in Ornitz, D. M., Xu, J., Colvin, J. S., McEwen, D. G., MacArthur, C. A., Coulier, F., Gao, G. and Goldfarb, M. (1996) Receptor specificity of the fibroblast growth factor family. J Biol Chem, 271, 15292-15297. The summary thereof is as follows. FGF used as a measurement target is added to a culture solution containing a cultured cell having an FGF receptor on the surface thereof, and the obtained mixture is cultured for a certain period of time. Thereafter, a labeled thymidine is added to the culture solution, followed by further culture for a certain period of time. By measuring the amount of the labeled thymidine incorporated into polymeric DNA during the culture, the degree of FGF to activate DNA synthesis is evaluated. (In the present invention as well, this method was adopted when the activity of FGF21 was measured in Examples 4, 5, 6, 8, 9, and 10.)
FGFR1c-expressing BaF3 cells and FGFR1c- and betaKlotho-expressing BaF3 cells were prepared as follows. In the case of FGFR1c-expressing BaF3 cells, an animal cell expression vector into which the entire-length cDNA of mouse FGFR1c had been cloned (described in Ornitz, D. M., Xu, J., Colvin, J. S., McEwen, D. G., MacArthur, C. A., Coulier, F., Gao, G. and Goldfarb, M. (1996) Receptor specificity of the fibroblast growth factor family. J Biol Chem, 271, 15292-15297.) was introduced into BaF3 cells by an electroporation method. The cells were then cultured in the presence of G418 for approximately 2 weeks, so as to obtain drug-resistant clones. Thereafter, such clones were obtained as those capable of growing as a result of FGF1 stimulation. In the case of both FGFR1c- and betaKlotho-expressing BaF3 cells, the entire-length cDNA of mouse betaKlotho was cloned into an animal cell expression vector, and it was then introduced into the FGFR1c-expressing BaF3 cells. The cells were then cultured in the presence of Puromycin and G418 for approximately 2 weeks, so as to obtain drug-resistant clones. In the case of only betaKlotho-expressing BaF3 cells, a betaKlotho-expressing vector was introduced into BaF3 cells, and Puromycin-resistant clones were then obtained. The BaF3 cells, into which the aforementioned genes had been each introduced, were maintained in an RPMI1640 medium containing 10% FBS and interleukin 3 (IL3, supplied by adding a 5% condition medium of WEHI-3 cells). For the growth stimulation experiment, the cells were washed with an RPMI1640 medium, and they were then suspended in an RPMI1640 medium containing 10% FBS, followed by inoculating the suspension on a culture plate. Thereafter, the resultant cells were used.
Immediately after inoculation, BaF3 cells that had expressed each clone and only FGFR1c were stimulated by addition of FGF21 (open bar) or PBS (filled bar) used as a control in the presence of heparin, and they were then cultured for 42 hours. Thereafter, tritium-labeled thymidine was added to the culture solution, and the culture was further continued for 6 hours. Thereafter, the amount of thymidine incorporated into the cells was measured, so as to evaluate DNA synthesis. A DNA synthesis value obtained when the cells were not stimulated with FGF21 was defined as 1, and the ratio of a DNA synthesis value obtained by stimulating with FGF21 to the aforementioned DNA synthesis value was expressed using magnification. […]

Cc1c[nH]c(/C=C2\C(=O)Nc3ccccc32)c1CCC(=O)O [SU5402, reference compound]
degree of phosphorylation of FRS2 and MAPK on FGF21 stimulation after inhibitor pre-treatment [1]: decreased

B1: humanized FGF21: FGF21 protein with human amino acid sequence, prepared in Escherichia coli from human cDNA (protein)
chain: HPIPDSSPLLQFGGQVRQRYLYTDDAQQTEAHLEIREDGTVGGAADQSPESLLQLKALKPGVIQILGVKTSRFLCQRPDGALYGSLHFDPEACSFRELLLEDGYNVYQSEAHGLPLHLPGNKSPHRDPAPRGPARFLPLPGLPPALPEPPGILAPQPPDVGSSDPLSMVGPSQGRSPSYAS
amount of DNA synthesized (thymidine incorporation) [2]: activated; also recorded: increased the amount of thymidine incorporated into the cells in a dose-dependent manner | amount of DNA synthesized (thymidine incorporation) [3]: activated; also recorded: increased the amount of thymidine incorporated into the cells in a dose-dependent manner | amount of DNA synthesized (thymidine incorporation) [4]: activated only the FGFR3c/betaKlotho-co-expressing cells | amount of DNA synthesized (thymidine incorporation) [5]: activated only the FGFR1c/betaKlotho-co-expressing cells

B2: FGF23: FGF having high structural similarity to FGF21; Klotho acts as its co-receptor (protein, UniProt Q9GZV9 25-251, looked up)
Fibroblast growth factor 23: YPNASPLLGSSWGGLIHLYTATARNSYHLQIHKNGHVDGAPHQTIYSALMIRSEDAGFVVITGVMSRRYLCMDFRGNIFGSHYFDPENCRFQHQTLENGYDVYHSPQYHFLVSLGRAKRAFLPGMNPPPYSQFLSRRNEIPLIHFNTPIPRRHTRSAEDDSERDPLNVLKPRARMTPAPASCSQELPSAEDNSPMASDPLGVVRGGRVNTHAGGTGPEGCRPFAKFI
amount of DNA synthesized [6]: able to act on FGFR1c-expressing cells | DNA synthesis (thymidine incorporated into the cells) [7]: did not react with FGFR1c
